Data as given in patent publication US6001988, “High affinity nucleic acid ligands to lectins” (NeXstar Pharmaceuticals, Inc.).

Tests used:
L-selectin (LS-Rg) [1] = molecular target: T1, L-selectin (LS-Rg) (Homo sapiens, UniProt P14151 P14151:39-332); assay: filter; 4 C, HSMC; 9.2 nM at room temp; conditions: tags: human IgG2 Fc fusion (provided by A. Varki); label: 32P; hairpin
T1 chain: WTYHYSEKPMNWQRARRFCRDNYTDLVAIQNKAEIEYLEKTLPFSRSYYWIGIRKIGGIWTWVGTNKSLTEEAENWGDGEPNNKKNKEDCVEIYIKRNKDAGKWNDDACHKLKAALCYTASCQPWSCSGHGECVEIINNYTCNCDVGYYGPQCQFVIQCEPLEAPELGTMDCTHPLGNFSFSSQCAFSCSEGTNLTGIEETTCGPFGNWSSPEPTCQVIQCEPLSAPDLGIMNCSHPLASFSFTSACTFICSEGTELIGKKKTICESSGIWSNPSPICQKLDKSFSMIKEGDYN
Protocol: (§1) As described in SELEX Patent Applications, the nitrocellulose filter partitioning method was used to determine the affinity of RNA ligands for LS-Rg and for other proteins. Filter discs (nitrocellulose/cellulose acetate mixed matrix, 0.45 um pore size, Millipore) were placed on a vacuum manifold and washed with 2 ml of HSMC buffer under vacuum. Reaction mixtures, containing ^32P labeled RNA pools and unlabeled LS-Rg, were incubated in HSMC for 10–20 min at 4° C., room temperature or 37° C., filtered, and then immediately washed with 4 ml HSMC at the same temperature. The filters were air-dried and counted in a Beckman LS6500 liquid scintillation counter without fluor.
(§2) The dissociation constants for representative ligands from rounds 13 and 14, including all orphans, were determined by nitrocellulose filter binding experiments and are listed in Table IX. These calculations assume two RNA ligand binding sites per chimera. The affinity of random RNA cannot be reliably determined but is estimated to be approximately 10 µM.

P-selectin (PS-Rg) [2] = molecular target: T2, P-selectin (PS-Rg) (Homo sapiens, UniProt P16109 P16109:42-321); assay: filter; 4 C, HSMC; conditions: tags: human IgG1 Fc fusion (provided by A. Varki); chain copies: 2; label: 32P; hairpin
T2 chain: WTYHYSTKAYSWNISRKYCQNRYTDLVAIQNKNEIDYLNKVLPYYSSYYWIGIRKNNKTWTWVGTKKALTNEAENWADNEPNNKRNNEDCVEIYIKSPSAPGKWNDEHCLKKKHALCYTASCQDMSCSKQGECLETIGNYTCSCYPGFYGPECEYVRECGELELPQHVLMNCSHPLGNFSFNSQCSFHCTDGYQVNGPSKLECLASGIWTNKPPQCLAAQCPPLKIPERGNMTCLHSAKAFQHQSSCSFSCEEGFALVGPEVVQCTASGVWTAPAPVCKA
Protocol: as §1
(§3) The affinity of L-selectin ligands to ES-Rg, PS-Rg and CD22β-Rg were determined by nitrocellulose partitioning. […] In general, a ligand's affinity for ES-Rg is 10^3-fold lower and that for PS-Rg is about 10^4-fold less than for LS-Rg. […] The specificity of oligonucleotide ligand binding contrasts sharply with the binding of cognate carbohydrates by the selectins and confirms the assertion that SELEX ligands will have greater specificity than carbohydrate ligands.
(§4) *Dissociation constants were determined at 4° C. in HSMC buffer.

L-selectin (LS-Rg) [3] = molecular target: T1, L-selectin (LS-Rg); assay: filter; 4 C, HSMC; conditions: tags: human IgG2 Fc fusion (provided by A. Varki); label: 32P; no stem
Protocol: as §1, §2

[4] = molecular target: T3, wheat germ agglutinin (WGA) (Triticum vulgare, UniProt P10968 P10968:27-197); assay: filter; HBSS, room temp; 19.2 nM in Table IV; conditions: tags: free lectin, E Y Laboratories; label: 32P; hairpin
T3 sequence: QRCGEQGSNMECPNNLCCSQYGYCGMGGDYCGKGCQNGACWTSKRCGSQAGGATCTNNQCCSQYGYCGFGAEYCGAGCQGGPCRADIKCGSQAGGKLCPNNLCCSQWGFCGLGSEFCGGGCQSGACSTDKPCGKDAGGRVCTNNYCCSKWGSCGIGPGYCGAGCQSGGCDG
Protocol: (§5) The specifically eluted fraction was processed for use in the following round. Fractions eluted from immobilized WGA were heated at 90° C. for 5 minutes in 1% SDS, 2% β-mercaptoethanol and extracted with phenol/chloroform. RNA was reverse transcribed into cDNA by AMV reverse transcriptase at 48° C. for 60 min in 50 mM Tris-Cl pH (8.3), 60 mM NaCl, 6 mM Mg(OAc)_2, 10 mM DTT, 100 pmol DNA primer, 0.4 mM each of dNTPs, and 0.4 unit/µl AMV RT. […] C) Nitrocellulose Filter Partitioning As described in SELEX Patent Applications, the nitrocellulose filter partitioning method was used to determine the affinity of RNA ligands for WGA and for other proteins. Filter discs (nitrocellulose/cellulose acetate mixed matrix, 0.45 µm pore size, Millipore; or pure nitrocellulose, 0.45 µm pore size, Bio-Rad) were placed on a vacuum manifold and washed with 4 ml of HBSS buffer under vacuum. Reaction mixtures, containing ^32P labeled RNA pools and unlabeled WGA, were incubated in HBSS for 10 min at room temperature, filtered, and then immediately washed with 4 ml HBSS. The filters were air-dried and counted in a Beckman LS6500 liquid scintillation counter without fluor. WGA is a homodimer, molecular weight 43.2 kD, with 4 GlcNAc binding sites per dimer. For affinity calculations, we assume one RNA ligand binding site per monomer (two per dimer). […]

L-selectin (LS-Rg) [5] = molecular target: T1, L-selectin (LS-Rg); assay: filter; 4 C, HSMC; 15.4 nM at room temp; conditions: tags: human IgG2 Fc fusion (provided by A. Varki); label: 32P; hairpin
Protocol: as §1, §2

L-selectin (LS-Rg) [6] = molecular target: T1, L-selectin (LS-Rg); assay: filter; room temp, Ca/Mg; 160 pM at 37 C; conditions: tags: human IgG2 Fc fusion (provided by A. Varki); label: 32P; hairpin
P-selectin (PS-Rg) [7] = molecular target: T2, P-selectin (PS-Rg); assay: filter; room temp; conditions: tags: human IgG1 Fc fusion (provided by A. Varki); chain copies: 2; label: 32P; hairpin
Protocol: as §5, with “RNA” for “The specifically eluted fraction was processed for use in the following round. Fractions eluted from immobilized WGA were heated at 90° C. for 5 minutes in 1% SDS, 2% β-mercaptoethanol and extracted with phenol/chloroform. RNA”, “dimer). The monomer concentration is defined as 2 times the dimer concentration.” for “dimer).”
(§6) The affinity of representative cloned ligands for LS-Rg, ES-Rg, PS-Rg, CD22β-Rg and WGA was determined by nitrocellulose partitioning and the results shown in Table XIV. […]
(§7) *Kds were determined at room temperature.

E-selectin (ES-Rg) [8] = molecular target: T4, E-selectin (ES-Rg) (Homo sapiens, UniProt P16581 P16581:22-556); assay: filter; room temp; conditions: tags: human IgG1 Fc fusion (provided by A. Varki); chain copies: 2; label: 32P; hairpin
T4 chain: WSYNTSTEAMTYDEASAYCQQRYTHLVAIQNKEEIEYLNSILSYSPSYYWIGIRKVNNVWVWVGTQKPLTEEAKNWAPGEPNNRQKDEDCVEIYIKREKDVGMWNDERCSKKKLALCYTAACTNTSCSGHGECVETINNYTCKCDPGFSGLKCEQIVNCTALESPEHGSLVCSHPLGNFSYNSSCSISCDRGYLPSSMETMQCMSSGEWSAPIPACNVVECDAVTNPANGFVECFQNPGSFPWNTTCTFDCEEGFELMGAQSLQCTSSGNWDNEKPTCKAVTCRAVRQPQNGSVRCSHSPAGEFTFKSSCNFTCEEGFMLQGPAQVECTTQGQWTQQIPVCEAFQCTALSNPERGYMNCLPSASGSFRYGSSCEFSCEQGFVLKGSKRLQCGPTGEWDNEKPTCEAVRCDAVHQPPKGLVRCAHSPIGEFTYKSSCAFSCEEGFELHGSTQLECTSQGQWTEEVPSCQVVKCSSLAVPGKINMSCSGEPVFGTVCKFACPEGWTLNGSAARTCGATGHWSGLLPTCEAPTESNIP
Protocol: as §5, with “RNA” for “The specifically eluted fraction was processed for use in the following round. Fractions eluted from immobilized WGA were heated at 90° C. for 5 minutes in 1% SDS, 2% β-mercaptoethanol and extracted with phenol/chloroform. RNA”, “dimer). The monomer concentration is defined as 2 times the dimer concentration.” for “dimer).”
as §6, §7

E-selectin (ES-Rg) [9] = molecular target: T4, E-selectin (ES-Rg); assay: filter; 4 C, HSMC; conditions: tags: human IgG1 Fc fusion (provided by A. Varki), chain copies: 2, label: 32P
Protocol: as §1, §3, §4

L-selectin (LS-Rg) [10] = molecular target: T1, L-selectin (LS-Rg); assay: filter; 4 C, HSMC; 75 nM at room temp; conditions: tags: human IgG2 Fc fusion (provided by A. Varki); label: 32P; hairpin
Protocol: as §1, §2

P-selectin (PS-Rg) [11] = molecular target: T2, P-selectin (PS-Rg); assay: filter; room temp, Ca/Mg buffer; conditions: tags: lectin, EGF and first two CRD domains fused to human IgG1 Fc (provided by A. Varki); chain copies: 2 (dimeric Fc chimera, inferred)
E-selectin (ES-Rg) [12] = molecular target: T4, E-selectin (ES-Rg); assay: filter; room temp, Ca/Mg buffer; conditions: tags: extracellular domain fused to human IgG1 Fc (provided by A. Varki); chain copies: 2 (dimeric Fc chimera, inferred)
L-selectin (LS-Rg) [13] = molecular target: T1, L-selectin (LS-Rg); assay: filter; room temp; 260 pM at 37 C; conditions: tags: human IgG2 Fc fusion (provided by A. Varki); label: 32P; hairpin
L-selectin (LS-Rg) [14] = molecular target: T1, L-selectin (LS-Rg); assay: filter; 4 C, HSMC; 18 nM at room temp; conditions: tags: human IgG2 Fc fusion (provided by A. Varki); label: 32P
Protocol: as §1, §2

L-selectin (LS-Rg) [15] = molecular target: T1, L-selectin (LS-Rg); assay: filter; 4 C, HSMC; 14.9 nM at room temp; conditions: tags: human IgG2 Fc fusion (provided by A. Varki); label: 32P; hairpin
Protocol: as §1, §2

L-selectin (LS-Rg) [16] = molecular target: T1, L-selectin (LS-Rg); assay: filter; room temp; 370 pM at 37 C; conditions: tags: human IgG2 Fc fusion (provided by A. Varki); label: 32P

B1: F13.48 (ssRNA)
RNA: GGGAGGACGAUGCGGAAAGUUAUGAGUCCGUAUAUCAAGGUCGACAUGUGUGAAUCAGACGACUCGCCCGA
modifications: 2'-NH2 all C and U
Q: For B1, which Kd (L-selectin (LS-Rg) [1]) is on record?
A: 15.9 nM

Q: What about the Kd (P-selectin (PS-Rg) [2]) of the same binder?
A: 720 nM

B2: F14.25 (ssRNA)
RNA: GGGAGGACGAUGCGGUAGAGGUAGUAUGUGUGGGAGAUGAAAAUACUGUGGAAAGCAGACGACUCGCCCGA
modifications: 2'-NH2 all C and U
Q: B2 was tested. Which Kd (L-selectin (LS-Rg) [3]) did it give?
A: 1300 nM

B3: 11.24 (ssRNA)
RNA: GGGAAAAGCGAAUCAUACACAAGACGGCUGUGUGGUGUUGGAGCGUCAUAGUAGGAGUCGUCACGAACCAAGGCGCUCCGCCAGAGACCAACCGAGAA
modifications: 2'-NH2 all C and U
Q: How did the Kd [4] turn out when B3 was run?
A: 19.4 nM

B4: F14.9 (ssRNA)
RNA: GGGAGGACGAUGCGGAAACCUUGAUGUGUGAUAGAGCAUCCCCCAGGCGACGUACCAGACGACUCGCCCGA
modifications: 2'-NH2 all C and U
Q: For B4, which Kd (L-selectin (LS-Rg) [5]) is on record?
A: 8.2 nM

B5: 227 (ssDNA)
DNA: CTACCTACGATCTGACTAGCCGGACATGAGCGTTACAAGGTGCTAAACGTAACGTACTTGCTTACTCTCATGTAGTTCC
Q: With B5 as the binder, how does the Kd (L-selectin (LS-Rg) [6]) read?
A: 0.043 nM

Q: What about the Kd (P-selectin (PS-Rg) [7]) of the same binder?
A: 560 nM

Q: And the Kd (E-selectin (ES-Rg) [8])?
A: 33 nM

B6: F13.57 (ssRNA)
RNA: GGGAGGACGAUGCGGUAACAUAAAGUAGCGCGUCUGUGAGAGGAAGUGCCUGGAUCAGACGACUCGCCCGA
modifications: 2'-NH2 all C and U
Q: Which results are given for B6?
A: Kd (E-selectin (ES-Rg) [9]; hairpin): 2700 nM; Kd (L-selectin (LS-Rg) [10]): 3 nM

B7: 230 (ssDNA)
DNA: CTACCTACGATCTGACTAGCTGCACACCTGAGGGTTACAAGGCGCTAGACGTAACCTCTCGCTTACTCTCATGTAGTTCC
Q: For B7, which Kd (P-selectin (PS-Rg) [11]) is on record?
A: 600 nM

Q: And the Kd (E-selectin (ES-Rg) [12])?
A: 19 nM

Q: And the Kd (L-selectin (LS-Rg) [13])?
A: 0.057 nM

B8: F13.51 (ssRNA)
RNA: GGGAGGACGAUGCGGAUGUAAAUCUAGGCAGAAACGUAGGGCAUCCACCGCAACGACAGACGACUCGCCCGA
modifications: 2'-NH2 all C and U
Q: For B8, which Kd (L-selectin (LS-Rg) [14]) is on record?
A: 8.8 nM

Q: And the Kd (E-selectin (ES-Rg) [9])?
A: 2000 nM

B9: F13.32 (ssRNA)
RNA: GGGAGGACGAUGCGGCGCGUAUGUGUGAAAGCGUGUGCACGGAGGCGUCUACAAUCAGACGACUCGCCCGA
modifications: 2'-NH2 all C and U
Q: What does the source list for B9?
A: Kd (P-selectin (PS-Rg) [2]): 17000 nM; Kd (L-selectin (LS-Rg) [15]): 15.7 nM

B10: 174 (ssDNA)
DNA: CTACCTACGATCTGACTAGCCATTCACCATGGCCCCTTCCTACGTATGTTCTGCGGGTGGCTTACTCTCATGTAGTTCC
Q: For B10, which Kd (P-selectin (PS-Rg) [11]) is on record?
A: 380 nM

Q: And the Kd (E-selectin (ES-Rg) [12])?
A: 28 nM

Q: And the Kd (L-selectin (LS-Rg) [16])?
A: 0.043 nM
